± gives the standard deviation of the averaged measurements.
Tested on: ATP
Test: switch fluorescence ratio, 500 uM ATP over buffer (Cy3 cluster intensity, sum of 5 cycles each) (fold (ratio)); higher = stronger signal-on switching upon ATP binding; sequences stand for … in TCGTCGGCAGCGTCAGATGTGTATAAGAGACAGTTTTTTTTTTTTTTTTTTTTTTTTT…TC
Settings: aptamer strand: ATP DNA aptamer (quencher-CACCTGGGGGAGTATTGCGGAGGAAGG + anchor), 100 nM annealed; ATP concentration: 500 uM
How it was run: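 For every switch-domain sequence, the fluorescence ratio is the mean of per-cluster values, each being summed target-cycle Cy3 intensity over summed buffer-cycle Cy3 intensity. Clusters outside 100-1000 RFU were excluded. On a modified Illumina MiSeq flow-cell, the Cy3-labelled switching-strand clusters were annealed to 100 nM quencher-labelled ATP aptamer, imaged in selection buffer and then after 15 min with 500 uM ATP at 22 °C. Five such cycles were run, with NaOH stripping and re-annealing between them.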
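Also: ATP exposure 15 min at 22 °C before imaging.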

| Sequence | switch fluorescence ratio |
| --- | --- |
| TCCTTCGGCG | 1.3 ± 0.078 |
| TCCTTCTCTT | 1.05 ± 0.021 |
| TCCTTTAAGG | 1.025 ± 0.003 |
| TCCTTTAATC | 1.98 ± 1.4 |
| TCCTTTACTG | 0.9779 ± 0.0072 |
| TCCTTTAGCC | 1.23 ± 0.015 |
| TCCTTTGGTC | 0.987 ± 0.022 |
| TCGAAAACAG | 0.961 ± 0.0078 |
| TCGAAAGTGT | 1 ± 0.025 |
| TCGAAATTCG | 1.02 ± 0.019 |
| TCGAACTGAT | 1.02 ± 0.03 |
| TCGAAGGATA | 0.992 ± 0.011 |
| TCGAAGGGGG | 1.1 ± 0.16 |
| TCGAATGGCT | 1 ± 0.044 |
| TCGAATGT | 1.01 ± 0.012 |
| TCGAATGTGC | 0.989 ± 0.022 |
| TCGACACTGA | 1.058 ± 0.0022 |
| TCGACCTAAT | 1.077 ± 0.01 |
| TCGACGATTC | 1.52 ± 0.14 |
| TCGACTCAGG | 1.05 ± 0.028 |
| TCGACTGAGG | 1.03 ± 0.031 |
| TCGACTGTTT | 1.03 ± 0.018 |
| TCGAGAATGT | 0.984 ± 0.014 |

| Sequence | switch fluorescence ratio |
| --- | --- |
| TCGAGAGGGA | 1 ± 0.047 |
| TCGAGATAGA | 1.1 ± 0.11 |
| TCGAGATTAG | 0.9942 ± 0.0086 |
| TCGAGCATCA | 1.143 ± 0.01 |
| TCGAGCTTGT | 1 ± 0.024 |
| TCGAGGAATC | 1.075 ± 0.0094 |
| TCGAGGGCGG | 0.98 ± 0.032 |
| TCGAGGGGGC | 1.07 ± 0.17 |
| TCGAGTAGGG | 0.995 ± 0.016 |
| TCGAGTATCT | 0.999 ± 0.019 |
| TCGAGTATTC | 1.04 ± 0.013 |
| TCGAGTTGCA | 1 ± 0.033 |
| TCGAGTTTGG | 1.01 ± 0.022 |
| TCGATACGAT | 0.994 ± 0.018 |
| TCGATAGCTG | 0.935 ± 0.046 |
| TCGATAGGGG | 0.98 ± 0.054 |
| TCGATATTGG | 1.02 ± 0.022 |
| TCGATCCCGA | 1.017 ± 0.0072 |
| TCGATCGGGT | 0.991 ± 0.035 |
| TCGATGGCGC | 1.02 ± 0.023 |
| TCGATGGGGG | 0.942 ± 0.013 |
| TCGATTCGGT | 1.02 ± 0.026 |
| TCGATTGTGG | 1.02 ± 0.03 |

| Sequence | switch fluorescence ratio |
| --- | --- |
| TCGCAAAGGT | 1.34 ± 0.036 |
| TCGCACGTAT | 1.03 ± 0.043 |
| TCGCCAATTG | 1.0649 ± 0.00052 |
| TCGCCTGGCG | 0.972 ± 0.034 |
| TCGCGGCAAT | 3.06 ± 2.3 |
| TCGCGGGAAG | 1.015 ± 0.0054 |
| TCGCTAATTG | 1.04 ± 0.022 |
| TCGCTACCGA | 1.09 ± 0.04 |
| TCGCTAGATG | 1.4 ± 0.52 |
| TCGCTGTTGT | 1.01 ± 0.0019 |
| TCGCTTGGCC | 1.03 ± 0.04 |
| TCGGAAAGGG | 0.9961 ± 0.0049 |
| TCGGAAGATT | 1.01 ± 0.034 |
| TCGGAAGGAC | 1.141 ± 0.011 |
| TCGGAAGGGC | 1.017 ± 0.0027 |
| TCGGAAGTCA | 1.012 ± 0.0042 |
| TCGGAATTTT | 1.03 ± 0.026 |
| TCGGACAGGC | 1.03 ± 0.035 |
| TCGGACGTAC | 1.98 ± 0.16 |
| TCGGACTTTT | 1.04 ± 0.012 |
| TCGGAGGGGC | 1.03 ± 0.013 |
| TCGGAGTCTG | 1.04 ± 0.056 |
| TCGGATGTGG | 1.01 ± 0.056 |

| Sequence | switch fluorescence ratio |
| --- | --- |
| TCGGATTATG | 0.9669 ± 0.0066 |
| TCGGCAAGTT | 1.2 ± 0.33 |
| TCGGCACGGA | 0.999 ± 0.031 |
| TCGGCCAGTT | 1.01 ± 0.037 |
| TCGGCGGGAG | 1.01 ± 0.042 |
| TCGGCGGGGA | 1.05 ± 0.14 |
| TCGGCGTCAG | 0.9817 ± 0.0041 |
| TCGGCTGCGT | 1.03 ± 0.018 |
| TCGGCTGTTG | 1 ± 0.028 |
| TCGGCTTTTT | 0.999 ± 0.025 |
| TCGGGAAAAA | 0.991 ± 0.032 |
| TCGGGAATCG | 0.983 ± 0.027 |
| TCGGGAGGGT | 1.02 ± 0.023 |
| TCGGGATAAG | 1.01 ± 0.018 |
| TCGGGATAGT | 1.03 ± 0.039 |
| TCGGGCAACG | 1 ± 0.041 |
| TCGGGCCAGG | 1.1 ± 0.071 |
| TCGGGCTCGC | 0.9639 ± 0.0068 |
| TCGGGCTGGT | 0.977 ± 0.011 |
| TCGGGGAAAG | 1.04 ± 0.082 |
| TCGGGGAAGT | 1.04 ± 0.042 |
| TCGGGGAATA | 1.02 ± 0.014 |
| TCGGGGACGT | 1.062 ± 0.0057 |

| Sequence | switch fluorescence ratio |
| --- | --- |
| TCGGGGATCA | 0.9752 ± 0.0058 |
| TCGGGGCGAG | 1.02 ± 0.023 |
| TCGGGGCGTG | 1 ± 0.027 |
| TCGGGGCTGT | 0.993 ± 0.026 |
| TCGGGGGGA | 1.03 ± 0.034 |
| TCGGGGGGGG | 1 ± 0.036 |
| TCGGGGGTAG | 0.985 ± 0.014 |
| TCGGGGGTGC | 1.04 ± 0.033 |
| TCGGGGTCTT | 0.9941 ± 0.0029 |
| TCGGGGTGGG | 1.03 ± 0.043 |
| TCGGGGTGTA | 1 ± 0.011 |
| TCGGGTCGCC | 1 ± 0.044 |
| TCGGGTCGGG | 1 ± 0.021 |
| TCGGGTGCGA | 1.04 ± 0.011 |
| TCGGGTTAGG | 0.998 ± 0.032 |
| TCGGGTTAGT | 1.005 ± 0.0081 |
| TCGGGTTCAG | 1 ± 0.034 |
| TCGGGTTGAG | 1.01 ± 0.067 |
| TCGGGTTTGT | 1.01 ± 0.011 |
| TCGGGTTTTC | 1 ± 0.039 |
| TCGGTAATC | 1.15 ± 0.0017 |
| TCGGTATGAA | 1.01 ± 0.018 |
| TCGGTATTTG | 0.967 ± 0.037 |

| Sequence | switch fluorescence ratio |
| --- | --- |
| TCGGTATTTT | 1.01 ± 0.026 |
| TCGGTCCCGG | 1 ± 0.065 |
| TCGGTCCCTT | 0.988 ± 0.035 |
| TCGGTCGGGC | 1.01 ± 0.013 |
| TCGGTCGTTT | 0.976 ± 0.015 |
| TCGGTGAGAG | 1.03 ± 0.019 |
| TCGGTGAGGT | 0.9988 ± 0.0027 |
| TCGGTGGGAG | 0.981 ± 0.048 |
| TCGGTGTCCG | 1.03 ± 0.055 |
| TCGGTGTTTT | 1.05 ± 0.055 |
| TCGGTTGAGA | 1.01 ± 0.021 |
| TCGGTTGGGT | 0.984 ± 0.038 |
| TCGGTTGGTA | 1 ± 0.042 |
| TCGGTTGGTT | 0.967 ± 0.023 |
| TCGGTTGTCT | 1.02 ± 0.052 |
| TCGGTTTATG | 0.994 ± 0.023 |
| TCGGTTTCG | 0.989 ± 0.095 |
| TCGGTTTTGC | 0.982 ± 0.028 |
| TCGTAAAAA | 1.07 ± 0.13 |
| TCGTACCTTG | 1.01 ± 0.025 |
| TCGTAGATGT | 1 ± 0.026 |
| TCGTAGGGGA | 1.03 ± 0.025 |
| TCGTAGGGGG | 0.979 ± 0.072 |

| Sequence | switch fluorescence ratio |
| --- | --- |
| TCGTATTACA | 1.011 ± 0.0035 |
| TCGTATTCGG | 0.992 ± 0.025 |
| TCGTATTGAG | 0.9482 ± 0.0077 |
| TCGTCAGGTG | 2.48 ± 0.084 |
| TCGTCATGTT | 0.999 ± 0.015 |
| TCGTCCAAGT | 1.07 ± 0.066 |
| TCGTCCCTGT | 1.074 ± 0.003 |
| TCGTCCGGTA | 1.29 ± 0.04 |
| TCGTCTTATA | 0.991 ± 0.014 |
| TCGTGAAGGG | 0.979 ± 0.051 |
| TCGTGACGAA | 1.03 ± 0.02 |
| TCGTGAGGCT | 0.989 ± 0.036 |
| TCGTGCAAGT | 1.05 ± 0.063 |
| TCGTGCCAGG | 1.032 ± 0.01 |
| TCGTGGCATA | 1.11 ± 0.044 |
| TCGTGGGAAA | 2.11 ± 1.5 |
| TCGTGTACTA | 1.02 ± 0.035 |
| TCGTTAATTA | 1.06 ± 0.026 |
| TCGTTAATTT | 1.014 ± 0.0029 |

— the supplement of paper PMC10126150
